Experimental data from the DeepSol protein solubility set.

Experiment: soluble on expression in E. coli; label from the status in PepcDB or PDB records

Row | Sequence | soluble on expression in E. coli
1 | MRIAANACPALVLNADFQPLSYFPLSLWSWQEAVKAVFMDRVCVVSEYDRVVHSPSLDLSLPSVISLKEYVPVAKRAAFTRFNVFLRDGFACQYCGIRLPAHDLTFDHVVPRSKGGVTAWNNVVTACGPCNMRKANRTPREAAMPLLQRPAEPSTHRLRNEGRSFPPGYLHESWRDFLYWDVELDPFLEHHHHHH | not soluble
2 | MRIEEFDYELPEELIAKYPAVPRHSARLMVLNRKDQSIKHDTFINLPDYLEEGDLLVFNNTKVIPARLYGRKPTGGRVEVVLTDFIKPDEWKALIGGKKIRPGLVIEVAPDFKVEVLEHIEEGKFRVKLLGEEPLKLIDKYGHIPIPPYLKREEEPIDRVYYQTIFAKEKGAVASPTASLHFSEELLEKLKEKGINFAFITLHVSYGTFKPVKVERVEEHRVDPEYVKIPKETVEKIKETKEKGKRVVAVGTTVVRALETKPFEPFEGWTDLYIYPGFKFKVVDAMITNFHLPRSSLLILVSAFAGREFILKAYREAVEKRYRFYSYGDGMLIL | soluble
3 | MRIFPVFLLTFSLFLIKEEIVTAEVKVSAPVVNQSGIKLNLERQFTGSDVAINRIHFSPDGQFLLTAAADGVGTLWTKEGEMLGQLQGQKPPMFNARLSPDRQILITTGYDGTIRLWNLQGELLEEQQPHRAAVADAIFSPDSQIIVTCSDDGQTKIFTRQGQEIASVLKSGTARNLAYHPQGLLIASVSDSGSLHLINPNGKIEREISTGQGRINNVNFSPNGEQLLTSGINGSAKLWNLAGELIHEYKVVPTGWVNSAQFYPKGEWLATASDDGTIRFWQKDGQLIYELPLVNARLTSLSFSPDGKQLAATSSQGQVWVFNLSYLEHHHHHH | not soluble
4 | MRIGIVGAGLGGLLAGALLSKNHEVVVFEKLPFLGGRFTNLKYEGFQLTTGALHMIPHGNDGYLAQALRKAGANVKIINSKPDGTFLINGKEYLYKELFSLLGFKEKAKAFKLATKLKLGKVDKNISFGEFLEEIDLALKVGNAFTGWALSLTAYETPMSEIIEIAKNYHKFGGPGIPIGGCKAVTDELSRIIKKNNGKIIKEYEVKRIEIDEKAYIDDYEFDVVISNISPIETQKICNIKFLKSKPKPSKGIKISIATKEGIIKHGGVLFTPECERINGLNQVTNVDKSLAPEGWHLVMTHQTQLTNNVKKEIDLGLEDIENLFKGKDYKILHIQSYRDDWPVNHASNGTDIDNIVNDRFYLVGDGAKGRGGIEVEGIAMGVLKVVNYINSLLEHHHHHH | soluble
5 | MRIGPELLQDLLDRVEGSLAAAIGTADGLLVEGVRKRPLDLEAAIAEHAALWRQARAAYARSLGAEEVGELLVGGTGVVGYLRSMRTRDPEPLFLLLLLTPEANLGQARLAARRLLDRAGGVVAWPT | soluble
6 | MRIHILGICGTFMGGLAMLARSLGHEVTGSDANVYPPMSTLLEKQGIDLIQGYDASQLDPQPDLVIIGNAMTRGNPCVEAVLEKNIPFMSGPQWLHDFVLRDRWVLAVAGTHGKTTTAGMATWILEACGYKPGFVIGGVPGNFEVSARLGESPFFVIEADEYDCAFFDKRSKFVHYCPRTLILNNLEFDHADIFDDLKAIQKQFHHLVRIVPGQGRIIWPENDINLKQTMALGCWSEQELVGEQGHWQAKKLTTDASEWEVWLDGEKVGDVKWGLVGEHNMHNGLMAIAAARHVGVAPAEAASALGSFINARRRLELRGEANGVTVYDDFAHHPTAILATLAALRGKVGGTARIIAVLEPRSNTMKMGLCKDDLAPSLGRADEVFLLQPPHIPWQVAEVAEACVQPAHWSGDVDTLAEMVVKTAQPGDHILVMSNGGFGGIHQKLLDGLAKKAQNVTAY | not soluble
7 | MRILWILPYSPWPTTSGGKTRQYHLLRSLAARGHRITVLLHSKQPVSAEDRQALEPFLERLVVLPRRPLRSLSTLLAALFAPYPLLASVNGLSAELQRTATELLREPWDVVQVEHSYSFQPYERPLRDAGQPFVLTEHNVESSLGAATYDRLPGWALPFVRYDQWRYRRWERRVMSQAAAVVAVTEKDARQLGAMLGRPVPVVVNGVDCEHFATARPTPEAQRVLFLGNYEYAPNVDAVEWMLDEILPRVWAHCPEARMSVCGYALPAEWAQRWSDPRIEWQGFVPDLLQLQSSSSVFLAALRHGGGSKLKVLEALAAGLPLASTAQGVSGLELRDGEDYLGGESAEQLANAVVRLLQDPAQARALGENGRAYVRRAHDWSVAASQLEQVYAGLAEGAPACA | not soluble
8 | MRITLIVLAALSFACTSCWFETGPDRFIYQLSWFCAESSCERGDDLNQFNRAETYGTDFAMSSTSASDLATSATIVVSATLGRDCRLVLDLVLFGHELDESILCFTPNGFELTVTIPDEDPETSSTWVVMAREL | not soluble
